The target of this experiment is Protein A (coating of 10 μm silica microparticles) (UniProt P38507). Nature of the experiment: flow cytometry of beads; protein A coated on 10 μm silica particles, incubated with PE Mouse Anti-Human CD9 for 1 h, washed twice by centrifugation (200× g, 1 min); FACS Canto II, PE excitation 488 nm, filter 585/42; unlabeled proteinA-Silica particles used to set the gate.

“BD PE Mouse Anti-Human CD9 (Catalogue #341647, BD Biosciences) (antibody)” gave a percent of beads positive for PE of 93%.

(Values after publication PMC12756313.)
